The values that follow come from patent publication US20180179283A1.

The target of assay [1] is HLA-A2/WT1 126-134 peptide complex on cells (human). The experiment in a line: FACS, T2 cells loaded with 10^-4M WT1 peptide.
Another assay concerns the target Unloaded T2 (human). Nature of the assay: FACS, unloaded T2 cells, anti-human PE. Background: In flow cytometry, cells or beads pass a laser one at a time.
In assay [2] the target is HLA-A2 positive, antigen negative cells. Nature of the assay: FACS, 501A cells (melanoma, WT1 mRNA -).
The target in assay [3] is HLA-A2/Tyrosinase 369-377 peptide complex on cells (human). Nature of the assay: FACS, T2 cells loaded with TyrD [..], anti-human PE.
Assay [4] concerns the target HLA-A2 positive, antigen negative cells. Nature of the assay: FACS, SKMEL-5 cells (melanoma, WT1 mRNA -).
Assay [5] concerns the target HLA-A2/WT1-S6 peptide on T2 cells (human). Nature of the assay: FACS, T2 cells loaded with WT1-S6 [..], anti-human PE.
Assay [6] deals with HLA-A2/WT1-S7 peptide on T2 cells (human). Nature of the assay: FACS, T2 cells loaded with WT1-S7 [..], anti-human PE.
In assay [7] the target is HLA-A2 positive, antigen negative cells. Nature of the assay: FACS, JVM-2 cells (lymphoblast, WT1 mRNA -).
Assay [8] has as its target HLA-A2/WT1-S10 peptide on T2 cells (human). The experiment in a line: FACS, T2 cells loaded with WT1-S10 [..], anti-human PE.
Assay [9] addresses HLA-A2/WT1 126-134 peptide complex on cells (human). The experiment in a line: FACS, BV173 cells (B cell precursor leukemia, WT1 mRNA +).
Assay [10] shares this target. The experiment in a line: FACS, SET-2 cells (essential thrombocythemia, WT1 mRNA +).
For assay [11], the target named is HLA-A2 positive, antigen negative cells. Nature of the assay: FACS, IM-9 cells (multiple myeloma, WT1 mRNA -).
The target is the same in assay [12]. The experiment in a line: FACS, U266 cells (multiple myeloma, WT1 mRNA -).
Assay [13] has as its target HLA-A2/PAP 112-120 peptide complex on cells (human). Nature of the assay: FACS, T2 cells loaded with PAP112, anti-human PE.
Assay [14] has as its target HLA-A2/WT1 126-134 peptide complex on cells (human). Nature of the assay: FACS, T2 cells loaded with WT1 peptide 1x10e-4M, anti-human PE.
Assay [15] shares this target. The experiment in a line: FACS, T2 cells loaded with WT1 peptide 1x10e-5M, anti-human PE.
For assay [16] the target is unchanged. The experiment in a line: FACS, T2 cells loaded with WT1 1x10e-4M in DMSO, anti-human PE.
In assay [17] the target is HLA-A2/MAGE-A4 230-239 peptide complex on cells (human). Nature of the assay: FACS, T2 cells loaded with MAGE-A4 [..], anti-human PE.
Assay [18] deals with HLA-A2/MAGE-A9 223-231 peptide complex on cells (human). Nature of the assay: FACS, T2 cells loaded with MAGE-A9 [..], anti-human PE.
Assay [19] concerns the target HLA-A2/WT1-S13 peptide on T2 cells (human). Nature of the assay: FACS, T2 cells loaded with WT1-S13 [..], anti-human PE.
The target of assay [20] is HLA-A2/WT1-S16 peptide on T2 cells (human). Nature of the assay: FACS, T2 cells loaded with WT1-S16 [..], anti-human PE.
The target of assay [21] is HLA-A2/WT1-S22 peptide on T2 cells (human). The experiment in a line: FACS, T2 cells loaded with WT1-S22 [..], anti-human PE.
Assay [22] addresses HLA-A2/WT1-S11 peptide on T2 cells (human). The experiment in a line: FACS, T2 cells loaded with WT1-S11 [..] (heteroclitic pep.), anti-human PE.
The target of assay [23] is HLA-A2 positive, antigen negative cells. The experiment in a line: FACS, A498 cells (printed: non-small cell lung adenocarcinoma, WT1 mRNA -).

On to ESK1 TCR-like antibody, for which the MFI in [1] was 18; in the assay with Unloaded T2 (human), 1; in assay [2], 10.7; in assay [3], 1; in assay [4] it was 4.3; in [5], 5. For the same substance, the MFI in assay [6] was 3.1; in [7], 1; in assay [8] it was 1.4; in [9], 8.1; in [10], 26.3; in assay [11] it was 1.2. Further, the MFI came to 1.9 in assay [12]; 1.1 in assay [13]; 17.9 in assay [14]; 1.6 in [15]; 17.9 in [16]; 1.1 in assay [17]. In addition, the MFI in [18] is 1; in [19], 1.1; in [20] it was 1.1; in [21], 1.1; in assay [22], 1.1; in assay [23] it was 5.2.
